Test results as given in US20140087993A1 (TUFTS MEDICAL CENTER, published 2014).
Values belong to the binder of their own block, whether it stands above or below them. * marks the point of attachment. Palmitoyl = CCCCCCCCCCCCCCCC(=O)*

Columns and labels:
[1] = biological target: T1, protease-activated receptor 1 (PAR1), on cells (human, UniProt P25116 42-425); assay: cell-based or functional assay
T1 sequence (looked up): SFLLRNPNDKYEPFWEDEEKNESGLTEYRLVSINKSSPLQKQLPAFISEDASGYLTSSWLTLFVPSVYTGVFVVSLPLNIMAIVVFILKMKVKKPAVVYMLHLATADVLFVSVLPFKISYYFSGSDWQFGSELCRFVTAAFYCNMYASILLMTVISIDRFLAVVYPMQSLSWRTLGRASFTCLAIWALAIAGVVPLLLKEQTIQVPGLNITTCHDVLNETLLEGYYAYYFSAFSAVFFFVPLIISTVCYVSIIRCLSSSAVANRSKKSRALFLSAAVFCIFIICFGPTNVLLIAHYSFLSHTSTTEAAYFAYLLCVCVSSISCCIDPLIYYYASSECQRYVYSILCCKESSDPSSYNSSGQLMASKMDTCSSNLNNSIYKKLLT

[2] = biological target: protease-activated receptor-2 (PAR2), wild type, on cells (human, UniProt P55085 37-397); assay: cell-based or functional assay

Binder: Palmitoyl-KKSRALF-NH2 [P1pal-7]
IC50, Ca++ mobilization by SFLLRN in human platelets [1]: 0.55 µM
IC50, thrombin-induced ERK1/2 phosphorylation in A549 cells [1]: 0.2 µM

B1: P1pal-10S (peptide)
peptide: Palmitoyl-NRSKKSSALF-NH2
SMILES: CCCCCCCCCCCCCCCC(=O)N[C@@H](CC(N)=O)C(=O)N[C@@H](CCCNC(=N)N)C(=O)N[C@@H](CO)C(=O)N[C@@H](CCCCN)C(=O)N[C@@H](CCCCN)C(=O)N[C@@H](CO)C(=O)N[C@@H](CO)C(=O)N[C@@H](C)C(=O)N[C@@H](CC(C)C)C(=O)N[C@@H](Cc1ccccc1)C(N)=O
IC50, Ca++ mobilization by SFLLRN in human platelets [1]: 0.7 µM
IC50, thrombin-induced ERK1/2 phosphorylation in A549 cells [1]: 0.8 µM

B4: P1pal-i1-11 (peptide)
peptide: Palmitoyl-ILKMKVKKPAV-NH2
SMILES: CCCCCCCCCCCCCCCC(=O)N[C@H](C(=O)N[C@@H](CC(C)C)C(=O)N[C@@H](CCCCN)C(=O)N[C@@H](CCSC)C(=O)N[C@@H](CCCCN)C(=O)N[C@H](C(=O)N[C@@H](CCCCN)C(=O)N[C@@H](CCCCN)C(=O)N1CCC[C@H]1C(=O)N[C@@H](C)C(=O)N[C@H](C(N)=O)C(C)C)C(C)C)[C@@H](C)CC
IC50, Ca++ mobilization by SFLLRN in human platelets [1]: 1.3 µM

Second part, the binder after the results:

calcium flux in SW620 cells, antagonist activity against SLIGRL [2]: 29 % inhibition
B2: P2pal-18Q (peptide)
peptide: Palmitoyl-RSSAMDENSEKKRKQAIK-NH2
SMILES: CCCCCCCCCCCCCCCC(=O)N[C@@H](CCCNC(=N)N)C(=O)N[C@@H](CO)C(=O)N[C@@H](CO)C(=O)N[C@@H](C)C(=O)N[C@@H](CCSC)C(=O)N[C@@H](CC(=O)O)C(=O)N[C@@H](CCC(=O)O)C(=O)N[C@@H](CC(N)=O)C(=O)N[C@@H](CO)C(=O)N[C@@H](CCC(=O)O)C(=O)N[C@@H](CCCCN)C(=O)N[C@@H](CCCCN)C(=O)N[C@@H](CCCNC(=N)N)C(=O)N[C@@H](CCCCN)C(=O)N[C@@H](CCC(N)=O)C(=O)N[C@@H](C)C(=O)N[C@H](C(=O)N[C@@H](CCCCN)C(N)=O)[C@@H](C)CC

IC50, calcium flux induced by 30 µM SLIGRL in SW620 cells [2]: 8000 µM
B3: P2pal-14GQ (peptide)
peptide: Palmitoyl-GDENSEKKRKQAIK-NH2
SMILES: CCCCCCCCCCCCCCCC(=O)NCC(=O)N[C@@H](CC(=O)O)C(=O)N[C@@H](CCC(=O)O)C(=O)N[C@@H](CC(N)=O)C(=O)N[C@@H](CO)C(=O)N[C@@H](CCC(=O)O)C(=O)N[C@@H](CCCCN)C(=O)N[C@@H](CCCCN)C(=O)N[C@@H](CCCNC(=N)N)C(=O)N[C@@H](CCCCN)C(=O)N[C@@H](CCC(N)=O)C(=O)N[C@@H](C)C(=O)N[C@H](C(=O)N[C@@H](CCCCN)C(N)=O)[C@@H](C)CC

calcium flux in SW620 cells, antagonist activity against SLIGRL [2]: 77 % inhibition
B5: P2pal-18S pepducin (peptide)
peptide: Palmitoyl-RSSAMDENSEKKRKSAIK-NH2
SMILES: CCCCCCCCCCCCCCCC(=O)N[C@@H](CCCNC(=N)N)C(=O)N[C@@H](CO)C(=O)N[C@@H](CO)C(=O)N[C@@H](C)C(=O)N[C@@H](CCSC)C(=O)N[C@@H](CC(=O)O)C(=O)N[C@@H](CCC(=O)O)C(=O)N[C@@H](CC(N)=O)C(=O)N[C@@H](CO)C(=O)N[C@@H](CCC(=O)O)C(=O)N[C@@H](CCCCN)C(=O)N[C@@H](CCCCN)C(=O)N[C@@H](CCCNC(=N)N)C(=O)N[C@@H](CCCCN)C(=O)N[C@@H](CO)C(=O)N[C@@H](C)C(=O)N[C@H](C(=O)N[C@@H](CCCCN)C(N)=O)[C@@H](C)CC
